# Positions count from the first letter of the chain named.
# B1: Ab_16 scFv-Fc (scFv, V domains shown)
# VH: QVQLVQSGGGVVQPGRSLRLSCAASGFTFSNYGMHWVRQAPGKGLEWVALIWERGSKKDYADSVKGRFTVSRDNSKNTLYLQMNSLRPEDTAVYFCAREGISMTGAEYFQHWGQGTLVTVSS
# VL: QSVLTQPPSVSGSPGQRVTMSCTGSSSNIGAGYDVHWYQQVPGAAPRLLIYGTNNRPSGVPDRFSGSKSGTSASLTITGLQAEDEADYYCQSYDNSLTDPYVFGTGTKVTVL
# B2: Ab_14 scFv-Fc (scFv, V domains shown)
# VH: QVQLQQSGPGLVKPSQTLSLTCAISGDSVSSNSAAWNWIRQSPARGLEWLGRTYYRSRWYNDYAISMKSRITINPDTSKNQFSLQLESVTPEDTAVYYCAREIRGFDYWGQGTLVTVSS
# VL: QSVLTQPPSASGSPGQSVTISCTGTSSDVGAYNFVSWYQHHPGKAPKLIIYDFNKRPSGVPDRFSGSKSGNTASLTVSGLQADDEADYYCSSYAGSNNFDVVFGGGTKLTVL
# B3: Ab_17 scFv-Fc (scFv, V domains shown)
# VH: QVQLVQSGGGVVQPGRSLRLSCAASGFTFDDYAMHWVRQVPGKGLEWVSGIDWNSGVIGYADSVKGRFTISRDNVKNSLYLQMNSLRTEDSALYYCAKDIGPGGSGSYYAFDIWGQGTTVTVSS
# VL: QSALTQPASVSGSPGQSITISCTGTSSDVGGSKYVSWYQQHPGKAPKVMIYDVTKRPSGVPDRFSGSKSGNTASLTISGLQAEDEADYYCAAWDDSLNGVVFGGGTKLTVL
# B4: Ab 38 scFv-Fc (scFv, V domains shown)
# VH: QVTLKESGPTLVKPTQTLTLTCTFSGFSLTTSGVSVGWIRQPPGKALEWLALIHWDDDKRYSPSLRSRLTITRDTSKNQVVLTVTDMDPADTGTYYCASFIMTVYAEYFEDWGQGTLVTVSS
# VL: EIVLTQSPATLSVSPGERATLSCRASQSVSSNLAWYQQKPGQAPRLLMYDVSTRATGIPARFSGSGSGTEFSLTISSLQSEDFAVYYCQQRGAWPLTFGGGTKVEIK
# B5: S1-RBD-R3-T1-B12 Ab (Ab_31) scFv-Fc (scFv, V domains shown)
# VH: QVQLVQSGAEVKKPGSSVKVSCKASGGTFSSYTISWVRQAPGQGLEWMGGIIPILGTPNYAQKFQDRVAITADKSTSTAYMELSSLRSEDTAVYYCAVGSGWYSGFDYWGQGTLVTVSS
# VL: NFMLTQPHSVSESPGKTVTISCTGSSGSIASNYVQWYQQRPGSAPTTVIYEDSQRPSGVPDRFSGSIDSSSNSASLTISGLKTEDEADYYCQSFHNSNPVIFGGGTKLTVL
# B6: Ab_27 scFv-Fc (scFv, V domains shown)
# VH: QVQLVQSGTEVKKPGASVKVSCKASGYSFTGSHLHWVRQAPGQGLEWMGWINPDSGVINYAQKFQGRVTLTRDTSISTAYMELSGLRSDDTAVYYCARDKAIGYVWALDYWGQGTLVTVSS
# VL: QSALTQPPSVSGSPGQSVTISCTGTSSDVGTYNRVSWYQQPPGKAPKLMIYEVSNRPSGVSNRFSGSKSGNTASLTISGLQAEDEADYYCSSYTRTFTYVFGTGTKVTVL
# B7: Ab_18 scFv-Fc (scFv, V domains shown)
# VH: EVQLVQSGGGVVQPGRSLRVSCAASGFSFSRYGMHWVRQAPGKGLEWVAFIRHDGSKKYYADSVEGRFTISRDNSRNTVSLEMNSLRGEDTAVYYCAKDGRLEAALDDWGQGTLVTVSS
# VL: NFMLTQPHSMSGSAGKTVTVSCIRSSGSIANNFVQWYQQRPGSAPTTVIYEDNQRPSGVPDRFSGSIDSSSNSASLTISGLKTEDEADYYCQSYDSSNLVFGGGTRLTVL
# B8: RBD-R3-E1-A5 Ab (Ab_30) scFv-Fc (scFv, V domains shown)
# VH: QVQLVQSGGGVVQPGKSLRLSCTASGFTFSDFPIHWVRQAPGKGLEWVGVISYDGNIKYYGDSVKGRFTISRDNAKNSLYLQMNSLRVEDTAVYYCARGGSSFDIWGQGTTVTVSS
# VL: SYELTQPPSVSEAPRQRVTISCSGSTSNIGNNAVSWYQHLPGKAPKLLIYYNERLPSGVSDRFSGSKSGTSASLAISGLRSEDEADYYCAAWDDSLSGHVVFGGGTKLTVL
# B9: Ab_19 scFv-Fc (scFv, V domains shown)
# VH: EVQLVESGAEVKKPGESLKISCKGSGYSFTSYWIGWVRQMPGKGLEWMGIIYPGDSDTRYSPSFQGQVTISADKSISTAYLQWSSLKASDTAMYYCARRGDLDAFDIWGQGTMVTVSS
# VL: QPGLTQPPAASGTPGQRVTVSCSGASANIGSNAVSWFKQFPETAPRLLISGNTHRPSGVPDRVSGSKSGTSASLTISGLQSDDEADYYCAAWDDSLNGYVFGSGTKVTVL
# B10: S1-R3-T1-C4 (Ab_8) scFv-Fc (scFv, V domains shown)
# VH: QVQLVQSGAEVKKPGSSVKVSCKASGGTFSSYAISWLRQAPGQGLEWMGWINPNSGGTNYAQKFQGRVTMTRDTSISTAYMELSRLRSDDTAVYYCARGSGGYYLGWGQGTLVTVSS
# VL: QPGLTQPPSVSKGLRQTATLTCTGNSNNVGNQGAAWLQQHQGHPPKLLSYMNNNRPPGISERFSASRSGNTASLTITGLQPEDEADYYCSAWDSSLSRWVFGGGTKLSVL
# B11: Ab_26 scFv-Fc (scFv, V domains shown)
# VH: QVQLVQSGGGLVQPGRSLRLSCAASGFTFDDYAMHWVRQVPGKGLEWVSGIDWNSGVIGYADSVKGRFTISRDNAKNSLYLQMNSLRAEDTALYYCAKDAYSYGFLGAFDIWGQGTMVTVSS
# VL: LPVLTQPPSVSVAPGQTASITCGGDNIRTKGVHWYQQKPGQAPLLVIYYASDRPSGIPERFSGSSSGNTATLTISRVEAGDEADYYCQVWDSSSDLVVFGGGTTLTVL
# B12: Ab_21 scFv-Fc (scFv, V domains shown)
# VH: QVQLVQSGGGLVQPGGSLRLSCATSGFTFDDYAMHWVRQAPGKGLEWVSGISWNSGSIGYVDSVKGRFTISRDNRNNKVYLQMNNLRAEDTAVYYCARDWWGSIDHWGLGTLVTVSS
# VL: QSALTQPRSVSGSPGQSVTISCTGTSSDVGGYDYVSWYQQHPGKAPKLIIYDVSKRPSGVPDRFSGSKSGNTASLTVSGLQAEDEADYYCSSYTSSSPVVFGGGTKLTVL
# B13: RBD-R3-E1-B3 Ab (Ab_32) scFv-Fc (scFv, V domains shown)
# VH: QVQLVQSGAEVKKPGESLKISCKGSGYSFTSYWIGWVRQMPGKGLEWMGIIYPGDSDTRYSPSFQGQVTISADKSISTAYLQWSSLKASDTAMYYCARGWQWHDYWGQGTLVTVSS
# VL: QTVVTQEPAVSVALGQTVRITCQGDSLRSYYASWYQQKPGQAPVLVVYDKDKRPSGIPDRFSGSTSGNTASLTITGAQAEDEADYYCNSRDRSDNHVVFGGGTKLTVL
# B14: Ab_23 scFv-Fc (scFv, V domains shown)
# VH: EVQLVQSGAEVKKPGSSVKVSCRSSGGTFSTYGITWVRQAPGQGLEWMGRIIPSLGIPNYAQKFQGRVTITADTSVSTAWMELSSLESDDTAIYYCARENIDLATNDFWGQGTLVTVSS
# VL: QSALTQPPSASGSPGQSVTISCTGTSRDIGAYGYVSWYQQVPGKAPKLIIYEVRNRPSGVSSRFSGSKSGNTASLTISGLQAEDEADYYCSSYTSSSTLDVVFGGGTKLTVL
# B15: Ab2-7 IgG (antibody, V domains shown)
# VH: QVTLKESGPTRVKPTQTLTLTCTFSGFSLSTTGVGVGWIRQPPGKALEWLALIYWNDDKRYSPSLKSRLTITKDTSKNQVVLTMTNMDPVDTATYYCARISGSGYFYPFDIWGQGTTVTVSS
# VL: NFMLTQPHSVSESPGKTVTISCTRSSGSIASNYVQWYQQRPGSSPTTVIYEDNQRPSGVPDRFSGSIDSSSNSASLTISGLKAEDEADYYCQSYDSSSLWVFGGGTKLTVL
# B16: Ab_28 scFv-Fc (scFv, V domains shown)
# VH: QVTLKESGPGLVNPSETLSLTCTVSGASISNSFWSWIRQSPGKGLEWIGYTSYSGNSIYNPSLKSRLTMSIDTSKNQLSLNLRSLTAADTAVYYCARREWIKGHFDYWGQGTLVTVSS
# VL: B5 VL with S26G, S53N, F94Y, H95D, N96S, I101V
# B17: Ab_13 scFv-Fc (scFv, V domains shown)
# VH: B15 VH with T10K, R11L, T32S, N56D, T72A, N78Y, T117M, S122A
# VL: B15 VL with S44A, A83T, S98N
# B18: Ab_25 scFv-Fc (scFv, V domains shown)
# VH: QVQLVQSGGGLVQPGGSLRLSCAASGFTFSSYWMSWVRQAPGKGLEWVANIKQDGSEKYYVDSVKGRFTISRDNAKNSLYLQMNSLRAEDTAVYYCARGFYYYGAFDIWGQGTTVTVSS
# VL: B15 VL with R24G, S44A, D68G, A83T, S98N, L99H
# B19: S1-RBD-R3-T1-F5 (Ab2-7) scFv-Fc (scFv, V domains shown)
# VH: B15 VH
# VL: B15 VL
# B20: Ab_20 scFv-Fc (scFv, V domains shown)
# VH: QVQLVQSGGGSVKPGGSLRLSCAASGYRLSDYYMHWVRQAPGKGLEWVANIKQDGSEKYYVDSVKGRFTISRDNAKNSLYLQMNSLRAEDTAVYYCARVRGWSRGYFDYWGQGTLVTVSS
# VL: B15 VL with R24G, S44A, T77L, A83T, S98N, L99H
# B21: S1-RBD-R3-T1-C7 Ab (Ab_29) scFv-Fc (scFv, V domains shown)
# VH: QVQLQQSGPGLVKPSQTLSLTCAISGDSVSSYSDAWNWIRQSPSRGLEWLGRTYYRSKWYNDYAVSVKSRITINPDTSKNQFSLQLSSVTPEDTAVYYCAREIVATTPFRNYYYGMDVWGQGTTVTVSS
# VL: B15 VL with K16N, S25T, Y50F, E51Q, N53K, Q54L, A83T
# How the values were obtained:
# [1] = target: WT Spike (SARS-CoV-2 spike protein) (SARS-CoV-2)
# [2] = target: SARS-CoV-2 spike protein on stably transduced 293T cells (SARS-CoV-2); assay: FACS binding curve, percent of cells labeled
# [3] = target: SARS-CoV-2 receptor binding domain (RBD), recombinant, biotinylated (SARS-CoV-2)
Binder,Kd (WT Spike (SARS-CoV2)),Response (WT Spike (SARS-CoV2)),also measured
B1,11.8 pM,0.346,–
B2,8.22 pM,0.313,–
B3,6.35 pM,0.248,–
B4,–,–,Kd [1]: 7.86 pM; Response [1]: 0.274
B5,< 1 pM,0.101,–
B6,8.78 pM,0.202,–
B7,9.07 pM,0.216,–
B8,1.02 pM,0.107,–
B9,8.9 pM,0.121,–
B10,7.15 pM,0.118,–
B11,11 pM,0.185,–
B12,9.25 pM,0.147,–
B13,6.32 pM,0.131,–
B14,8.84 pM,0.0845,–
B15,–,–,"fold shift of the FACS binding curve to the right, IgG against scFv-Fc [2]: 10 fold; Kd [3]: 268 pM; koff [3]: 3.93e-05 s⁻¹; kon [3]: 147000 M⁻¹ s⁻¹"
B16,8.9 pM,0.132,–
B17,8.55 pM,0.0732,–
B18,8.9 pM,0.0219,–
B19,7.85 pM,0.0672,–
B20,9.01 pM,0.0985,–
B21,149 pM,0.126,–
